Source: publication PMC8298264, “Function of cofactor Akirin2 in the regulation of gene expression in model human neutrophil-like HL60 cells” (Bioscience Reports, 2021)

B1: Peroxiredoxin-2 (protein, UniProt P32119 2-198, looked up)
Peroxiredoxin-2: ASGNARIGKPAPDFKATAVVDGAFKEVKLSDYKGKYVVLFFYPLDFTFVCPTEIIAFSNRAEDFRKLGCEVLGVSVDSQFTHLAWINTPRKEGGLGPLNIPLLADVTRRLSEDYGVLKTDEGIAYRGLFIIDGKGVLRQITVNDLPVGRSVDEALRLVQAFQYTDEHGEVCPAGWKPGSDTIKPNVDDSKEYFSKHN
B2: sp¦P46926¦GNPI1_HUMAN (protein, UniProt P46926 1-289, looked up)
Glucosamine-6-phosphate …: MKLIILEHYSQASEWAAKYIRNRIIQFNPGPEKYFTLGLPTGSTPLGCYKKLIEYYKNGDLSFKYVKTFNMDEYVGLPRDHPESYHSFMWNNFFKHIDIHPENTHILDGNAVDLQAECDAFEEKIKAAGGIELFVGGIGPDGHIAFNEPGSSLVSRTRVKTLAMDTILANARFFDGELTKVPTMALTVGVGTVMDAREVMILITGAHKAFALYKAIEEGVNHMWTVSAFQQHPRTVFVCDEDATLELKVKTVKYFKGLMLVHNKLVDPLYSIKEKETEKSQSSKKPYSD
B3: sp¦O75083¦WDR1_HUMAN (protein, UniProt O75083 1-606, looked up)
WD repeat-containing protein 1: MPYEIKKVFASLPQVERGVSKIIGGDPKGNNFLYTNGKCVILRNIDNPALADIYTEHAHQVVVAKYAPSGFYIASGDVSGKLRIWDTTQKEHLLKYEYQPFAGKIKDIAWTEDSKRIAVVGEGREKFGAVFLWDSGSSVGEITGHNKVINSVDIKQSRPYRLATGSDDNCAAFFEGPPFKFKFTIGDHSRFVNCVRFSPDGNRFATASADGQIYIYDGKTGEKVCALGGSKAHDGGIYAISWSPDSTHLLSASGDKTSKIWDVSVNSVVSTFPMGSTVLDQQLGCLWQKDHLLSVSLSGYINYLDRNNPSKPLHVIKGHSKSIQCLTVHKNGGKSYIYSGSHDGHINYWDSETGENDSFAGKGHTNQVSRMTVDESGQLISCSMDDTVRYTSLMLRDYSGQGVVKLDVQPKCVAVGPGGYAVVVCIGQIVLLKDQRKCFSIDNPGYEPEVVAVHPGGDTVAIGGVDGNVRLYSILGTTLKDEGKLLEAKGPVTDVAYSHDGAFLAVCDASKVVTVFSVADGYSENNVFYGHHAKIVCLAWSPDNEHFASGGMDMMVYVWTLSDPETRVKIQDAHRLHHVSSLAWLDEHTLVTTSHDASVKEWTITY
B4: sp¦P25788¦PSA3_HUMAN (protein, UniProt P25788 2-255, looked up)
Proteasome subunit alpha …: SSIGTGYDLSASTFSPDGRVFQVEYAMKAVENSSTAIGIRCKDGVVFGVEKLVLSKLYEEGSNKRLFNVDRHVGMAVAGLLADARSLADIAREEASNFRSNFGYNIPLKHLADRVAMYVHAYTLYSAVRPFGCSFMLGSYSVNDGAQLYMIDPSGVSYGYWGCAIGKARQAAKTEIEKLQMKEMTCRDIVKEVAKIIYIVHDEVKDKAFELELSWVGELTNGRHEIVPKDIREEAEKYAKESLKEEDESDDDNM
B5: sp¦P13667¦PDIA4_HUMAN (protein, UniProt P13667 21-645, looked up)
Protein disulfide-isomerase A4: VAGAEGPDEDSSNRENAIEDEEEEEEEDDDEEEDDLEVKEENGVLVLNDANFDNFVADKDTVLLEFYAPWCGHCKQFAPEYEKIANILKDKDPPIPVAKIDATSASVLASRFDVSGYPTIKILKKGQAVDYEGSRTQEEIVAKVREVSQPDWTPPPEVTLVLTKENFDEVVNDADIILVEFYAPWCGHCKKLAPEYEKAAKELSKRSPPIPLAKVDATAETDLAKRFDVSGYPTLKIFRKGRPYDYNGPREKYGIVDYMIEQSGPPSKEILTLKQVQEFLKDGDDVIIIGVFKGESDPAYQQYQDAANNLREDYKFHHTFSTEIAKFLKVSQGQLVVMQPEKFQSKYEPRSHMMDVQGSTQDSAIKDFVLKYALPLVGHRKVSNDAKRYTRRPLVVVYYSVDFSFDYRAATQFWRSKVLEVAKDFPEYTFAIADEEDYAGEVKDLGLSESGEDVNAAILDESGKKFAMEPEEFDSDTLREFVTAFKKGKLKPVIKSQPVPKNNKGPVKVVVGKTFDSIVMDPKKDVLIEFYAPWCGHCKQLEPVYNSLAKKYKGQKGLVIAKMDATANDVPSDRYKVEGFPTIYFAPSGDKKNPVKFEGGDRDLEHLSKFIEEHATKLSRTKEEL
B6: sp¦Q8WU90¦ZC3HF_HUMAN (protein, UniProt Q8WU90 1-426, looked up)
Zinc finger CCCH …: MPPKKQAQAGGSKKAEQKKKEKIIEDKTFGLKNKKGAKQQKFIKAVTHQVKFGQQNPRQVAQSEAEKKLKKDDKKKELQELNELFKPVVAAQKISKGADPKSVVCAFFKQGQCTKGDKCKFSHDLTLERKCEKRSVYIDARDEELEKDTMDNWDEKKLEEVVNKKHGEAEKKKPKTQIVCKHFLEAIENNKYGWFWVCPGGGDICMYRHALPPGFVLKKDKKKEEKEDEISLEDLIERERSALGPNVTKITLESFLAWKKRKRQEKIDKLEQDMERRKADFKAGKALVISGREVFEFRPELVNDDDEEADDTRYTQGTGGDEVDDSVSVNDIDLSLYIPRDVDETGITVASLERFSTYTSDKDENKLSEASGGRAENGERSDLEEDNEREGTENGAIDAVPVDENLFTGEDLDELEEELNTLDLEE
B7: sp¦P82979¦SARNP_HUMAN (protein, UniProt P82979 2-210, looked up)
SAP domain-containing …: ATETVELHKLKLAELKQECLARGLETKGIKQDLIHRLQAYLEEHAEEEANEEDVLGDETEEEETKPIELPVKEEEPPEKTVDVAAEKKVVKITSEIPQTERMQKRAERFNVPVSLESKKAARAARFGISSVPTKGLSSDNKPMVNLDKLKERAQRFGLNVSSISRKSEDDEKLKKRKERFGIVTSSAGTGTTEDTEAKKRKRAERFGIA
B8: sp¦Q15424¦SAFB1_HUMAN (protein, UniProt Q15424 2-915, looked up)
Scaffold attachment factor B1: AETLSGLGDSGAAGAAALSSASSETGTRRLSDLRVIDLRAELRKRNVDSSGNKSVLMERLKKAIEDEGGNPDEIEITSEGNKKTSKRSSKGRKPEEEGVEDNGLEENSGDGQEDVETSLENLQDIDIMDISVLDEAEIDNGSVADCVEDDDADNLQESLSDSRELVEGEMKELPEQLQEHAIEDKETINNLDTSSSDFTILQEIEEPSLEPENEKILDILGETCKSEPVKEESSELEQPFAQDTSSVGPDRKLAEEEDLFDSAHPEEGDLDLASESTAHAQSSKADSLLAVVKREPAEQPGDGERTDCEPVGLEPAVEQSSAASELAEASSEELAEAPTEAPSPEARDSKEDGRKFDFDACNEVPPAPKESSTSEGADQKMSSPEDDSDTKRLSKEEKGRSSCGRNFWVSGLSSTTRATDLKNLFSKYGKVVGAKVVTNARSPGARCYGFVTMSTAEEATKCINHLHKTELHGKMISVEKAKNEPVGKKTSDKRDSDGKKEKSSNSDRSTNLKRDDKCDRKDDAKKGDDGSGEKSKDQDDQKPGPSERSRATKSGSRGTERTVVMDKSKGVPVISVKTSGSKERASKSQDRKSASREKRSVVSFDKVKEPRKSRDSESHSRVRERSEREQRMQAQWEREERERLEIARERLAFQRQRLERERMERERLERERMHVEHERRREQERIHREREELRRQQELRYEQERRPAVRRPYDLDRRDDAYWPEAKRAALDERYHSDFNRQDRFHDFDHRDRGRYPDHSVDRREGSRSMMGEREGQHYPERHGGPERHGRDSRDGWGGYGSDKRMSEGRGLPPPPRRDWGDHGRREDDRSWQGTADGGMMDRDHKRWQGGERSMSGHSGPGHMMNRGGMSGRGSFAPGGASRGHPIPHGGMQGGFGGQSRGSRPSDARFTRRY
B9: sp¦Q9UKX7¦NUP50_HUMAN (protein, UniProt Q9UKX7 1-468, looked up)
Nuclear pore complex protein …: MAKRNAEKELTDRNWDQEDEAEEVGTFSMASEEVLKNRAIKKAKRRNVGFESDTGGAFKGFKGLVVPSGGGRFSGFGSGAGGKPLEGLSNGNNITSAPPFASAKAAADPKVAFGSLAANGPTTLVDKVSNPKTNGDSQQPSSSGLASSKACVGNAYHKQLAALNCSVRDWIVKHVNTNPLCDLTPIFKDYEKYLANIEQQHGNSGRNSESESNKVAAETQSPSLFGSTKLQQESTFLFHGNKTEDTPDKKMEVASEKKTDPSSLGATSASFNFGKKVDSSVLGSLSSVPLTGFSFSPGNSSLFGKDTTQSKPVSSPFPTKPLEGQAEGDSGECKGGDEEENDEPPKVVVTEVKEEDAFYSKKCKLFYKKDNEFKEKGIGTLHLKPTANQKTQLLVRADTNLGNILLNVLIPPNMPCTRTGKNNVLIVCVPNPPIDEKNATMPVTMLIRVKTSEDADELHKILLEKKDA
B10: sp¦P28074¦PSB5_HUMAN (protein, UniProt P28074 60-263, looked up)
Proteasome subunit beta type-5: TTTLAFKFRHGVIVAADSRATAGAYIASQTVKKVIEINPYLLGTMAGGAADCSFWERLLARQCRIYELRNKERISVAAASKLLANMVYQYKGMGLSMGTMICGWDKRGPGLYYVDSEGNRISGATFSVGSGSVYAYGVMDRGYSYDLEVEQAYDLARRAIYQATYRDAYSGGAVNLYHVREDGWIRVSSDNVADLHEKYSGSTP
B11: sp¦P55145¦MANF_HUMAN (protein, UniProt P55145 25-182, looked up)
Mesencephalic …: LRPGDCEVCISYLGRFYQDLKDRDVTFSPATIENELIKFCREARGKENRLCYYIGATDDAATKIINEVSKPLAHHIPVEKICEKLKKKDSQICELKYDKQIDLSTVDLKKLRVKELKKILDDWGETCKGCAEKSDYIRKINELMPKYAPKAASARTDL
B12: sp¦P20618¦PSB1_HUMAN (protein, UniProt P20618 29-241, looked up)
Proteasome subunit beta type-1: RFSPYVFNGGTILAIAGEDFAIVASDTRLSEGFSIHTRDSPKCYKLTDKTVIGCSGFHGDCLTLTKIIEARLKMYKHSNNKAMTTGAIAAMLSTILYSRRFFPYYVYNIIGGLDEEGKGAVYSFDPVGSYQRDSFKAGGSASAMLQPLLDNQVGFKNMQNVEHVPLSLDRAMRLVKDVFISAAERDVYTGDALRICIVTKEGIREETVSLRKD
B13: sp¦P10620¦MGST1_HUMAN (protein, UniProt P10620 1-155, looked up)
Microsomal glutathione …: MVDLTQVMDDEVFMAFASYATIILSKMMLMSTATAFYRLTRKVFANPEDCVAFGKGENAKKYLRTDDRVERVRRAHLNDLENIIPFLGIGLLYSLSGPDPSTAILHFRLFVGARIYHTIAYLTPLPQPNRALSFFVGYGVTLSMAYRLLKSKLYL
B14: sp¦O60925¦PFD1_HUMAN (protein, UniProt O60925 2-122, looked up)
Prefoldin subunit 1: AAPVDLELKKAFTELQAKVIDTQQKVKLADIQIEQLNRTKKHAHLTDTEIMTLVDETNMYEGVGRMFILQSKEAIHSQLLEKQKIAEEKIKELEQKKSYLERSVKEAEDNIREMLMARRAQ

System: human HL60 cells
Test: SWATH-MS proteomics, differential protein representation, akirin2 KO vs WT HL60 cells
Type: cell-based
Details: SWATH-MS, akirin2 KO vs WT HL60 cells; over-represented in KO
Procedure, shortened: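 Proteins from WT and akirin2 KO HL60 cells (n=3 biological replicates) were FASP trypsin-digested and analyzed by SWATH-MS DIA with variable windows against an IDA-derived spectral library. Identifications at 1% global FDR; quantities normalized to total area sums of all detected proteins.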

**Q.** Which “Fold Change” value does the source give for B1 here?
**A.** The value was 2.923.

**Q.** What about the “Log (Fold Change)” value of the same molecule?
**A.** The value was 0.4659.

Same assay, conditions: akirin2 KO vs WT HL60 cells; sheet "Over-represented in KO"

**Q.** Which “Fold Change” value does the source give for B2 here?
**A.** Its value is 1.154.

**Q.** What about the “Log (Fold Change)” value of the same molecule?
**A.** The value was 0.06211.

**Q.** Which results are given for B3?
**A.** Fold Change: 1.216; Log (Fold Change): 0.0848

**Q.** What does the source list for B4?
**A.** Fold Change: 1.227; Log (Fold Change): 0.08878

**Q.** With B5 as the molecule, how does the “Fold Change” value read?
**A.** Its value is 1.162.

**Q.** And the “Log (Fold Change)” value?
**A.** Its value is 0.06526.

**Q.** Which results are given for B6?
**A.** Fold Change: 1.158; Log (Fold Change): 0.06384

**Q.** Which “Fold Change” value does the source give for B7 here?
**A.** Its value is 1.173.

**Q.** What about the “Log (Fold Change)” value of the same molecule?
**A.** The value was 0.06929.

**Q.** What does the source list for B8?
**A.** Fold Change: 1.249; Log (Fold Change): 0.09669

**Q.** For B9, which “Fold Change” value is on record?
**A.** Its value is 1.164.

**Q.** What about the “Log (Fold Change)” value of the same molecule?
**A.** Its value is 0.06601.

**Q.** With B10 as the molecule, how does the “Fold Change” value read?
**A.** Its value is 1.209.

**Q.** And the “Log (Fold Change)” value?
**A.** The value was 0.08243.

**Q.** Which results are given for B11?
**A.** Fold Change: 1.173; Log (Fold Change): 0.06948

**Q.** With B12 as the molecule, how does the “Fold Change” value read?
**A.** Its value is 1.163.

**Q.** And the “Log (Fold Change)” value?
**A.** Its value is 0.06574.

**Q.** B13 was tested. Which “Fold Change” value did it give?
**A.** Its value is 1.217.

**Q.** What about the “Log (Fold Change)” value of the same molecule?
**A.** Its value is 0.08527.

**Q.** How did the “Fold Change” value turn out when B14 was run?
**A.** Its value is 1.213.

**Q.** And the “Log (Fold Change)” value?
**A.** The value was 0.08377.
